This assay addresses ATP5B protein. In words: SPR, ATP5B amine-coupled to CM5 chip, peptide in flow at 50 ul/min; binding units relative to SEQ ID NO: 12. (In general: SPR reads the build-up and loss of mass on a sensor chip optically.)

ATP5B protein, sequence (P06576 48-529): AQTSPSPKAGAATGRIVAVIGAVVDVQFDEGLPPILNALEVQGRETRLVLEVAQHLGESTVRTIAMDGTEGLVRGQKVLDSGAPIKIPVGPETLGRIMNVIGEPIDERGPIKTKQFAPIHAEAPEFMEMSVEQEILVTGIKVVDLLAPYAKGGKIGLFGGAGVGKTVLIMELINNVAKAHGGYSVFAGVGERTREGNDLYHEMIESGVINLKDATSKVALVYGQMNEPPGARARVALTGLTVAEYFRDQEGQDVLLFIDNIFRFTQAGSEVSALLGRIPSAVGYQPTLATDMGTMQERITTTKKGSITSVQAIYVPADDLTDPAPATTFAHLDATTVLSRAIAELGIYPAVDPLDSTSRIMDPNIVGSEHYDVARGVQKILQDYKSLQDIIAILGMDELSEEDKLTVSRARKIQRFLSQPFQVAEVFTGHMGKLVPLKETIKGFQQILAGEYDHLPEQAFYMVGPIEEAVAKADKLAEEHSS

B1: Shortened substance (8-35) amino acid Ala substituted (11) (peptide)
peptide: VDRAAGSIREAGGAFGKREQAEEERYFR
As to B1, the Binding (%) was determined as 100%.

B2: Shortened substance (8-35) amino acid Ala substituted (24) (peptide)
peptide: VDRGAGSIREAGGAFGAREQAEEERYFR
As to B2, the Binding (%) amounted to 100%.

B3: Shortened substance (8-35) amino acid Ala substituted (8) (peptide)
peptide: ADRGAGSIREAGGAFGKREQAEEERYFR
B3 returned a Binding (%) of 101%.

B4: Shortened substance (8-35) amino acid Ala substituted (35) (peptide)
peptide: VDRGAGSIREAGGAFGKREQAEEERYFA
In the case of B4, the Binding (%) worked out at 110%.

B5: Shortened substance (8-35) amino acid Ala substituted (13) (peptide)
peptide: VDRGAASIREAGGAFGKREQAEEERYFR
B5 gave a Binding (%) of 98.5%.

B6: Shortened substance (8-35) amino acid Ala substituted (19) (peptide)
peptide: VDRGAGSIREAAGAFGKREQAEEERYFR
Regarding B6, the Binding (%) came out at 89.6%.

B7: Shortened substance (8-35) amino acid Ala substituted (20) (peptide)
peptide: VDRGAGSIREAGAAFGKREQAEEERYFR
B7 displayed a Binding (%) of 68%.

B8: Shortened substance (8-35) amino acid Ala substituted (23) (peptide)
peptide: VDRGAGSIREAGGAFAKREQAEEERYFR
Consider B8, for which the Binding (%) was 102%.

B9: Shortened substance (8-35) amino acid Ala substituted (33) (peptide)
peptide: VDRGAGSIREAGGAFGKREQAEEERAFR
In turn, B9 showed a Binding (%) of 146%.

B10: Shortened substance (8-35) amino acid Ala substituted (16) (peptide)
peptide: VDRGAGSIAEAGGAFGKREQAEEERYFR
B10 showed a Binding (%) of 97%.

B11: Shortened substance (8-35) amino acid Ala substituted (30) (peptide)
peptide: VDRGAGSIREAGGAFGKREQAEAERYFR
As for B11, the Binding (%) came to 94%.

B12: Shortened substance (8-35) amino acid Ala substituted (31) (peptide)
peptide: VDRGAGSIREAGGAFGKREQAEEARYFR
For B12, the Binding (%) was 158%.

B13: Shortened substance (8-35) amino acid Ala substituted (29) (peptide)
peptide: VDRGAGSIREAGGAFGKREQAAEERYFR
As to B13, the Binding (%) is 96.7%.

B14: Shortened substance (8-35) amino acid Ala substituted (26) (peptide)
peptide: VDRGAGSIREAGGAFGKRAQAEEERYFR
B14 came in with a Binding (%) of 94.1%.

B15: Shortened substance (8-35) amino acid Ala substituted (22) (peptide)
peptide: VDRGAGSIREAGGAAGKREQAEEERYFR
B15 showed a Binding (%) of 94%.

B16: Shortened substance (8-35) amino acid Ala substituted (32) (peptide)
peptide: VDRGAGSIREAGGAFGKREQAEEEAYFR
Molecule B16 came in with a Binding (%) of 426%.

B17: Shortened substance (8-35) amino acid Ala substituted (14) (peptide)
peptide: VDRGAGAIREAGGAFGKREQAEEERYFR
The molecule B17 displayed a Binding (%) of 98.8%.

B18: Shortened substance (8-35) amino acid Ala substituted (10) (peptide)
peptide: VDAGAGSIREAGGAFGKREQAEEERYFR
The molecule B18 gave a Binding (%) of 104%.

B19: Shortened substance (8-35) amino acid Ala substituted (15) (peptide)
peptide: VDRGAGSAREAGGAFGKREQAEEERYFR
For B19, the Binding (%) worked out at 99.3%.

B20: Shortened substance (8-35) amino acid Ala substituted (34) (peptide)
peptide: VDRGAGSIREAGGAFGKREQAEEERYAR
Molecule B20 came in with a Binding (%) of 92.1%.

B21: Shortened substance (8-35) amino acid Ala substituted (27) (peptide)
peptide: VDRGAGSIREAGGAFGKREAAEEERYFR
Molecule B21 displayed a Binding (%) of 89.5%.

B22: Shortened substance (8-35) amino acid Ala substituted (25) (peptide)
peptide: VDRGAGSIREAGGAFGKAEQAEEERYFR
B22 displayed a Binding (%) of 85.2%.

B23: Shortened substance (8-35) amino acid Ala substituted (9) (peptide)
peptide: VARGAGSIREAGGAFGKREQAEEERYFR
B23 yielded a Binding (%) of 91.6%.

B24: Shortened substance (8-35) amino acid Ala substituted (17) (peptide)
peptide: VDRGAGSIRAAGGAFGKREQAEEERYFR
In the case of B24, the Binding (%) worked out at 169%.

B25: Shortened substance (8-35) (peptide)
peptide: VDRGAGSIREAGGAFGKREQAEEERYFR
In turn, B25 returned a Binding (%) of 100%.

(Values after patent publication US20260274910A1, “SINGLE FUSION PROTEIN AND PHARMACEUTICAL COMPOSITION” (MEDI&GENE INC., priority 2023, published 2026).)
